Reference: publication PMC12232725

Tests used:
[1] = target: T1, N protein (unphosphorylated, lambda-phosphatase treated) (SARS-CoV-2 (isolate Wuhan-Hu-1), UniProt P0DTC9 1-419); test: MST; apparent; Hill nH = 1.7 +/- 0.4; conditions: protein: recombinant; tags: His6-MBP tag cleaved (3C); linker remnant possible; chain copies: 2; stem loop
[2] = target: T1, N protein (unphosphorylated, …); test: MST; apparent; Hill nH = 1.6 +/- 0.1; conditions: protein: recombinant; tags: His6-MBP tag cleaved (3C); linker remnant possible; chain copies: 2; label: Cy5 at 5' end of forward strand; blunt
cGAS = cGAS (human, UniProt Q8N884 1-522)
biotin-AviTag-cGASCD = biotin-AviTag-cGASCD (human, UniProt Q8N884 158-522); test: BLI; N protein first adds signal, then accelerates dissociation; conditions: protein: recombinant; tags: AviTag, biotinylated; blunt

B1: 50-nt RNA-Cy5 (ssRNA)
RNA: GAUCUCUUGUAGAUCUGUUCUCUAAACGAACUUUAAAAUCUGUGUGGCUG
- Kd [1]: 3 ± 0.4 nM

B2: 50-bp DNA-Cy5 (dsDNA)
DNA 1: GATCTCTTGTAGATCTGTTCTCTAAACGAACTTTAAAATCTGTGTGGCTG
DNA 2: CAGCCACACAGATTTTAAAGTTCGTTTAGAGAACAGATCTACAAGAGATC
- Kd [2]: 6.3 ± 0.3 nM
- binding result (cGAS): binds

B3: 50-bp DNA (label-free) (dsDNA)
DNA 1: GATCTCTTGTAGATCTGTTCTCTAAACGAACTTTAAAATCTGTGTGGCTG
DNA 2: CAGCCACACAGATTTTAAAGTTCGTTTAGAGAACAGATCTACAAGAGATC
- binding result (cGAS): binds

B4: 45-bp DNA (ISD) (dsDNA)
DNA 1: TACAGATCTACTAGTGATCTATGACTGATCTGTACATGATCTACA
DNA 2: TGTAGATCATGTACAGATCAGTCATAGATCACTAGTAGATCTGTA
- binding result (biotin-AviTag-cGASCD): binds
